From patent US20220112303A1 (ICHILOV TECH, published 2022) come the findings set out here.

For orientation: Kd means the concentration at which binding is half-saturated.

In one assay the target is T1, CD24 antigen (UniProt P25063 27-59).
T1 chain: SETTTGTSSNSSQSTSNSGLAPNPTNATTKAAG
Kind of assay: Biacore SPR. In general terms: Surface plasmon resonance follows binding to a sensor surface in real time, without labels.

Assay [1] addresses T2, CD24 on human cells (HT29, colo257, Panc-1, sh-sy5y, PBMCs) (human, UniProt P25063 27-59).
T2 construct: whole, on cells; also called CD24-positive cells
T2 chain (looked up): T1 chain
Kind of assay: whole cell ELISA and flow cytometry on HT29 cells (HCT116 as low-CD24 control). Background: ELISA stands for enzyme-linked immunosorbent assay.

B1: humanized matured NS17 anti-CD24 antibody (antibody, V domains shown)
VH: QVHLQESGPGLVKPSQTLSLTCAVSGYSISSGYTWHWIRQPPGKTVEWIGYIQYTGSTRYNPALRGRLTMSVDTSKNQFSLKLISVTAADTGVYFCARGTTASFDYWGQGTTVTVSS
VL: DIVMTQSPDSLNVSLGERATIRCRSSQSLLYSSDQKNYLTWYQQKPGQPPKLLISWASPRASGVPDRFSGSGSGTDFTLTISSLQAEDVGVYYCQQYFIYPLTFGVGTKLELK
notes: Tested as whole IgG with human CH1-CH3 and Ck, expressed from the pcDNA4-PCMV-TetO2-IgL-PCMV-TetO2-IgH vector; also called matured antibody
The molecule B1 returned a Kd with CD24 antigen of 18 nM. Further, in assay [1], the binding result is reported as “binds”.
